# Measurements from the RNAGym collection of RNA variant scans (doi:10.1073/pnas.2313332121).
# Variants at the floor of the assay were thinned out.
# B1: TPR 5TU (parent)
# chain: GGAUCUUCUCGAUCUAACAAAAAAGACAAAUCUGCCACAAAGCUUGAGAGCAUCUUCGGAUGCAGAGGCGGCAGCCUUCGGUGGCGCGAUAGCGCCAACGUUCUCAACUAUGACACGCAAAACGCGUGCUCCGUUGAAUGGAGUUUAUCAUG
# Variants of: B1
# Assay: polymerase ribozyme fitness, log enrichment relative to wild type (log ratio); higher = more active; in vitro selection for triplet polymerase activity
# Procedure, shortened: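 One round of in vitro selection, in triplicate, was applied to PCR-built, transcribed mutant libraries of each subunit of a heterodimeric triplet polymerase ribozyme. The steps were annealing with a biotinylated primer, partner subunit and triplets, incubation frozen at −7 °C, gel excision of extended constructs, streptavidin-bead capture and RT-PCR. Fitness is the logarithm, base 2, of genotype enrichment over wild-type enrichment from inverse-variance-weighted replicate averages of Illumina-sequenced inputs and outputs, keeping genotypes with ≥10 input reads and ≥1 read per output.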
row,Variant,polymerase ribozyme fitness (log ratio)
1,C57U C99G C105U,-1
2,G58A G141U,0.0168
3,G58A G141C,-0.279
4,U61A A89C A106C U148A,≤ -4.2
5,G58U G68A U148G,≤ -4.2
6,A60U G92U A107C,≤ -4.2
7,U61A G84A U134A,-3.68
8,G58C G88U C105A G141C U144G U146G,≤ -4.2
9,G59U U82A C93A A142C,≤ -4.2
10,G58U G83U C118U A137U,≤ -4.2
11,A60G C85U,-0.323
12,G59A G86U A97U C108G C116G G143C,≤ -4.2
13,G59C C76A U78C C87A G94C C96U G100A U144A,≤ -4.2
14,C57U U104C C116G A120U C123A,0.628
15,G59U C129G,-2.56
16,A60G G83A U127G G136A A142G,-3.28
17,G58C G92U A122G,-1.45
18,C57U C149U,-1.28
19,G58C G94U C131U,-0.209
20,C57U G59A A73G C79U,≤ -4.2
21,U61A G83A,-2.9
22,G59A U144C,0.0653
23,G58C A60G G81U G88A C108G G117C A119U G143C,≤ -4.2
24,G59A U135A G141U,-1.18

row,Variant,polymerase ribozyme fitness (log ratio)
1,G58U G84A,-0.866
2,A60U A97C U104C U134G U144C,-4.05
3,A60G A120G G128C A142G,-2.95
4,A60U C93U C125U,-2.48
5,G59C U82G G143C,-2.29
6,A60G C85A U104A A142U,-3.14
7,G58C G59A U102G A121U U127C,-3.85
8,G59C U82C,0.0118
9,G58C C93A G141C,-2.47
10,G59A A150U,0.933
11,G58U G80U U104G,-2.41
12,G59U A73G G86A C87U A138U A150G,≤ -4.2
13,G59C U90C C108G A119U A150U,≤ -4.2
14,A60G C108U G126U,-3.26
15,G58A G81A C123U U146G A147G,-0.0286
16,G59A C79A U82A C96A,-3.85
17,A60G U144G,1.35
18,A60C G68A C95A C96G U134G U139G,≤ -4.2
19,C57U G59A C75G A138G,-4.02
20,U61A A150G,-1.15
21,C57U G86U A97C,-1.82
22,C57U G84A C99A,-1.59
23,U61G C125A,-1.26
24,U61G G88C,≤ -4.2

row,Variant,polymerase ribozyme fitness (log ratio)
1,A60G G88U A97U A107G C114U,≤ -4.2
2,G59C G86C,-3.39
3,G58C C96U G128U,-3.69
4,G58U G81C C93G,-3.21
5,G59A A73G C93U A106G U144G U146C,-0.726
6,G59C U148A,-2.88
7,G59A G65C G68A U77C G133U,≤ -4.2
8,G58U G59C U78A C108G U148A,≤ -4.2
9,C57U U111G,-4.17
10,G59A C85G G92U C95A C116A U127G,≤ -4.2
11,U61A U77G C85U C125A,≤ -4.2
12,G59U C95A C96G A119U C123U C149U,-3.57
13,C57U U127A U151G,≤ -4.2
14,G59C G71U G88U A98U C116G G124U,≤ -4.2
15,G59C C96U,0.681
16,U61A C103U,-1.31
17,C57U U78A G84A C95U U135G,≤ -4.2
18,G59C C95A C131G G136U,≤ -4.2
19,G58C C87U U135C,-2.22
20,A60C G83A C108G,≤ -4.2
21,U61G C69U C93G G143A,≤ -4.2
22,G59A G133U G140C,-3.69
23,G58C C93U A110G,-3.82
24,G59A C87U A137U,≤ -4.2

row,Variant,polymerase ribozyme fitness (log ratio)
1,G58C G71C G92U C96U U145A,≤ -4.2
2,A60G C96A,-0.165
3,G58C C87A G136A U144G,≤ -4.2
4,G58A G94A U135G U144C,-1.98
5,G59A U101A,0.287
6,G59C C93U G124C C125U A147U,-0.985
7,C57U G83C C87A G94U U146C,≤ -4.2
8,G59A C96G,-1.1
9,G59U G126A,0.622
10,G59U A60U C85A,-2.59
11,G58C A60G C63U G84A,0.439
12,C57U G58A A60U C69U C76A G88U G141A,≤ -4.2
13,G59A C93A G141C,-4.03
14,G58A G80U U151G,≤ -4.2
15,G59A C85A,-1.04
16,G59A C85G,-2.1
17,G59A U82G G117U,0.479
18,U61A A106U,-2.41
19,G59C C87U U109G,-1.03
20,G58U G141C A147U,-0.128
21,G58A G81C G84A G133C U144G,-0.672
22,G58A G94A A106C,-0.37
23,G59U C87U,-0.949
24,A60G C99G U102A U144G,≤ -4.2

row,Variant,polymerase ribozyme fitness (log ratio)
1,A60G G83A A98G,0.0303
2,G59A G71U G84U G92A A115G C118G U144C C149G,≤ -4.2
3,G59C U146C,0.716
4,G59C U146G,-0.145
5,G58U C123U G124C,-0.593
6,A60U G141C,-1.16
7,A60U G141A,-0.304
8,G59C C63A G126A,-0.167
9,U61G G124C A147U,-1.99
10,G58C C118U U135C U145A,-1.79
11,G58U C69A C85U C132G G133C G141C,≤ -4.2
12,G62A C75G C96A,≤ -4.2
13,G59C G84U G124C,-2.97
14,G58A G92A U127C U135G G143U U151G,≤ -4.2
15,C57U G58A G83A G86A C118U C123A,-1.76
16,G58A C63A,0.255
17,G59A C63G C69G C93U,-2.27
18,A60U G86U,-4.01
19,G59A A73U C75U C87A C95A G100U U127G A150C,≤ -4.2
20,A60U A98U,-0.598
21,G59A U82A C95G G136A,-1.25
22,U61G G67A G68U C87A A107U G126C C149G,≤ -4.2
23,G59A A89U C95A A97U C99A C125G,≤ -4.2
24,G59A G70C,-2.8

row,Variant,polymerase ribozyme fitness (log ratio)
1,A60U U61A G84U G128A G140C U148C,≤ -4.2
2,G58C C96G C125G G143U,≤ -4.2
3,A60U G94C,-1.12
4,C57U U146G,-0.656
5,G58C G126U,-0.916
6,G59A A60G U77G U127C,≤ -4.2
7,G59U C96G G133C A137C,≤ -4.2
8,G59A G100A,≤ -4.2
9,C57U G141A,0.719
10,G59U G65C U109G,≤ -4.2
11,C57U U145G,-0.309
12,C57U U145A,0.046
13,G59A C85A C95U C103U U134A,-3.2
14,A60G C72U G143U,-3.39
15,G58A G83A U109C A115U,≤ -4.2
16,G58U C96U,-0.236
17,G58A G62C U82G A106G G141C,-4.01
18,C57U C95A,-0.112
19,A60C U82A,-1.28
20,G58U U61G,-1.81
21,C57U C85A C96G C116U G143C U148A,≤ -4.2
22,G59A C123U G136C C149G,-4.17
23,G59A C132A,-2.31
24,G58C C87U C114U,-2.21

row,Variant,polymerase ribozyme fitness (log ratio)
1,G59U G84A U104C,-0.647
2,G58U U135G,-3.76
3,U61A U102C,-2.2
4,G58C C76A G86A A147U,-2.24
5,U61A C87U A147C,-3.49
6,G58U G71A A91U G92A G126A G133U,≤ -4.2
7,G59A U61A C72A,≤ -4.2
8,G59A A89G,-1.1
9,G59A C76G U78G C85U G88A G92C,≤ -4.2
10,C57U G62A C63U C87A G141A C149U,≤ -4.2
11,G59U G94C C99A G128C C129U U130C G140U,≤ -4.2
12,A60G U61G C93U,-2.26
13,A60G A113G C114U U135A,-3.05
14,G59C A138C,-3.7
15,A60G U102C,0.0901
16,U61A U101A,-1.08
17,A60C G81U C87U,-2.07
18,G59C G81U C95U G141A,-3.32
19,G59A G70C C85U A91U,≤ -4.2
20,U61A A66C A73U A91G,≤ -4.2
21,C57U C87G A107C C108U U135A U151C,≤ -4.2
22,U61A C75U,-1.92
23,G59C G141U,-0.299
